Molecular target: T1, β2m of the single-chain construct (Homo sapiens (Human)., UniProt P61769)
T1 construct: β2-microglobulin; In the cryo-EM sample it is the middle part of m3; also called B2m; source: part of the single-chain construct m3
Test: cryo-EM structure; single-chain P2R-linker-β2m-linker-B∗73:01 copurified with Fabs B.1 and B.8; Hepes-buffered saline pH 7.2, about 0.07 mM fluorinated octyl maltoside; 3.1 Å
Conditions: both partners purified

binding result: binds
B1: Fab B.1 (Fab, V domains shown)
VH: EVQLVESGGGLVQPGGSLRLSCAASGFNVSYYSIHWVRQAPGKGLEWVASISPYSGSTSYADSVKGRFTISADTSKNTAYLQMNSLRAEDTAVYYCARYSYGNSWSYDPYYGAMDYWGQGTLVTVSS
VL: DIQMTQSPSSLSASVGDRVTITCRASQSVSSAVAWYQQKPGKAPKLLIYSASSLYSGVPSRFSGSRSGTDFTLTISSLQPEDFATYYCQQYYWAPITFGQGTKVEIK
notes: synthetic Fab; model deposited in PDB 8TNJ (constant domain portion not visible in the map)

Reference: article PMC12450638 (The Journal of Biological Chemistry, 2025)
